Measured values published in the supplement of paper PMC10567573.

B1: ACSBG2 (parent)
chain: TPMTIPEFFRESVNRFGTYPALAS
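Further: lentivirally expressed fusions sorted by FACS into six bins by GFP to DsRed ratio, PSI derived from sequencing read proportions per bin multiplied by bin number.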

Variants of: B1
Experiment: protein stability index of a GFP-peptide fusion (GPS, HEK-293T) (PSI 1-6); higher = more stable
Conditions: c terminus: a fixed tail appended
With TPMTIPEFFRESNNRFGTYPALAS [V13N] the protein stability index was 2.84.
For TPMTIPEFFRESCNRFGTYPALAS [V13C], the protein stability index was 3.09.
Work on TPMTIPEFFRESGNRFGTYPALAS [V13G] yielded a protein stability index of 2.2.
Work on TPMTIPEFDRESVNRFGTYPALAS [F9D] yielded a protein stability index of 3.36.
Variant TPMTIPEFLRESVNRFGTYPALAS [F9L] has a protein stability index of 1.76.
For TPMTIPEFMRESVNRFGTYPALAS [F9M], the protein stability index was 2.45.
In the case of TPMTIPEFWRESVNRFGTYPALAS [F9W], the protein stability index is reported as 1.92.
With TPMTIPEFGRESVNRFGTYPALAS [F9G] the protein stability index was 3.05.
In the case of TPMTIPEFNRESVNRFGTYPALAS [F9N], the protein stability index is reported as 3.16.
Variant TPMTIPEFHRESVNRFGTYPALAS [F9H] has a protein stability index of 2.98.
Variant TPMTIPEFTRESVNRFGTYPALAS [F9T] has a protein stability index of 3.4.
For TPMTIPEFFRESVNRFGTYSALAS [P20S], the protein stability index was 2.04.
Work on TPMTIPEFFRESVNRFGTYFALAS [P20F] yielded a protein stability index of 2.49.
With TPMTIPEFFRESVNRFGTYQALAS [P20Q] the protein stability index was 1.71.
TPMTIPEFFRESVNRFGTYPALAR [S24R] showed a protein stability index of 2.96.
Work on TPMTIPEFFRESVNRFGTYPALAY [S24Y] yielded a protein stability index of 1.76.
TPMTIPEFFRESVNRFGTYPALAQ [S24Q] showed a protein stability index of 2.08.
TPMTIPEFFRESVNRFGTYPALAP [S24P] showed a protein stability index of 2.52.
TPMTIPEFFRESVNRFGTYPALAI [S24I] gave a protein stability index of 1.48.
With TPMTIPEFFRESVNRFGTYPALAL [S24L] the protein stability index was 2.04.
For TPMTIPEFFRESVNRFGTYPALAW [S24W], the protein stability index was 1.66.
In the case of TPMTIPEFFRESVNRFGTYPALAK [S24K], the protein stability index is reported as 2.45.
In the case of TPMTIPEFFRESVNRFGTYPALAE [S24E], the protein stability index is reported as 2.83.
In the case of TPMTIPEFFRRSVNRFGTYPALAS [E11R], the protein stability index is reported as 1.99.
TPMTIPEFFRMSVNRFGTYPALAS [E11M] showed a protein stability index of 2.76.
In the case of TPMTIPEFFRQSVNRFGTYPALAS [E11Q], the protein stability index is reported as 1.5.
For TPMTIPEFFRWSVNRFGTYPALAS [E11W], the protein stability index was 2.08.
With TPMTIPEFFRCSVNRFGTYPALAS [E11C] the protein stability index was 1.95.
TPMTIPEFFRNSVNRFGTYPALAS [E11N] showed a protein stability index of 1.82.
For TPMTIPEFFRESVNRFGRYPALAS [T18R], the protein stability index was 2.17.
Work on TPMTIPEFFVESVNRFGTYPALAS [R10V] yielded a protein stability index of 1.54.
TPMTIPEFFLESVNRFGTYPALAS [R10L] showed a protein stability index of 1.45.
For TPMTIPEFFNESVNRFGTYPALAS [R10N], the protein stability index was 3.3.
With TPMTIPEFFMESVNRFGTYPALAS [R10M] the protein stability index was 1.63.
For TPMTIPEFFSESVNRFGTYPALAS [R10S], the protein stability index was 2.45.
TPMTIPEFFWESVNRFGTYPALAS [R10W] gave a protein stability index of 1.97.
Variant TPMTIPEFFCESVNRFGTYPALAS [R10C] has a protein stability index of 1.5.
Variant TPMTIPEFFRESVNRFGTYPDLAS [A21D] has a protein stability index of 2.84.
Variant TPMTIPEFFRESVNRFGTYPWLAS [A21W] has a protein stability index of 2.53.
TPMTIPEFFRESVNRFGTYPYLAS [A21Y] gave a protein stability index of 2.17.
For TPMTIPEFFRESVNRFGTYPVLAS [A21V], the protein stability index was 1.78.
Variant TPMTIPEFFRESVNRFGTYPQLAS [A21Q] has a protein stability index of 2.5.
For TPMTIPEFFRESVNRFGTYPHLAS [A21H], the protein stability index was 2.32.
For TPMTIPEFFRESVNRFGTYPNLAS [A21N], the protein stability index was 2.19.
Variant PPMTIPEFFRESVNRFGTYPALAS [T1P] has a protein stability index of 2.43.
LPMTIPEFFRESVNRFGTYPALAS [T1L] showed a protein stability index of 2.08.
With NPMTIPEFFRESVNRFGTYPALAS [T1N] the protein stability index was 2.12.
In the case of YPMTIPEFFRESVNRFGTYPALAS [T1Y], the protein stability index is reported as 2.27.
Variant TPMTIPEFFRENVNRFGTYPALAS [S12N] has a protein stability index of 2.25.
TPMTIPEFFRELVNRFGTYPALAS [S12L] showed a protein stability index of 2.01.
Work on TPMTIPEFFREEVNRFGTYPALAS [S12E] yielded a protein stability index of 2.69.
In the case of TPMTIPEFFREIVNRFGTYPALAS [S12I], the protein stability index is reported as 1.76.
In the case of TPMTIPEFFREYVNRFGTYPALAS [S12Y], the protein stability index is reported as 1.86.
TPMTIPEFFREGVNRFGTYPALAS [S12G] showed a protein stability index of 2.48.
For TPMTIPEFFRESVNRFHTYPALAS [G17H], the protein stability index was 2.28.
Work on TPMTIPEFFRESVNRFETYPALAS [G17E] yielded a protein stability index of 2.35.
TPMTIPEFFRESVNRFMTYPALAS [G17M] gave a protein stability index of 2.17.
In the case of TPMTIPEFFRESVNRFITYPALAS [G17I], the protein stability index is reported as 1.97.
TPMTLPEFFRESVNRFGTYPALAS [I5L] gave a protein stability index of 1.97.
Variant TPMTHPEFFRESVNRFGTYPALAS [I5H] has a protein stability index of 2.39.
TPMTQPEFFRESVNRFGTYPALAS [I5Q] gave a protein stability index of 3.5.
